# Measured values from the DeepSol protein solubility set.
# Assay: soluble on expression in E. coli; label from the status in PepcDB or PDB records
row,Sequence,soluble on expression in E. coli
1,SQEQAQTTDWRATLKTIRNGVHKIDTYLNAALDLLGGEDGLCQYKCSDGSKPFPRYGYKPSPPNGCGSPLFGVHLNIGIPSLTKCCNQHDRCYETCGKSKNDCDEEFQYCLSKICRDVQKTLGLTQHVQACETTVELLFDSVIHLGCKPYLDSQRAACRCHYEEKTDL,soluble
2,SQEVMKNLSLNFGKALDECKKEMTLTDAINEDFYNFWKEGYEIKNRETGCAIMCLSTKLNMLDPEGNLHHGNAMEFAKKHGADETMAQQLIDIVHGCEKSTPANDDKCIWTLGVATCFKAEIHKLNWAPSMDVAVGEILAEV,soluble
3,SQPDHGRLSPPEAPDRPTISTASETSVYVTWIPRGNGGFPIQSFRVEYKKLKKVGDWILATSAIPPSRLSVEITGLEKGISYKFRVRALNMLGESEPSAPSRPYVVSG,soluble
4,SQSAEKFQGSHLLCPGCGHGIIVREVLNAVDGPIVLGNSTGCLEVCSAVYPHTSWDVPWIHIGFENGSTAISGVEAMYKALTNKGRYQGQKPKFVAFGGDGASYDIGLQFISGCMERGHDMTYICLDNENYANTGGQRSGSTPLGASTSTTPAGSVSFGKKEKKKDIVNIMASHGVPYVAQLSPNKWKDMNKKIKTALDTEGPCFINALSPCTTEWKFESNKTIELADMAVDSLMFPLFEIFNGRELKITYRPRNIIPVRDYLGAQKRFKHLFKKENEHIIEELQKDVNERWEYLQRREEAK,not soluble
5,SRFRFCGDLDCPDWVLAEISTLAKISSVKLRLLCSQVLKELLGQGIDYEKILKLTADAKFESGDVKATVAVLSFILSSAAKHSVDSDSLSSELQQLGLPKEHATSLCRCYEEKQSPLQEHLRACSLRVNRLASVGWRVDYTLSSSLLHSVEEPMVHLQLQVVPAPGTQAQPVSMSLSADKFQVLLAELKQAQTMMTALG,soluble
6,SRIVAPPKNYPDSSQHEWVSLTRISKNMQLAVIATEDQKFPHHYGVDFESLFDVISEAGDHGPSRGASTITQQAAKNVFLFPSHSYVRKAYELYFALLMELMWSKERILEVYLNVVEFGPGIYGAEAAAQNYFGVSAKQLSKWQAARLAVVLPNPYRIKVYPQSDYTARRTRWAMNQMSNLGSVQL,not soluble
7,SRPADLLQLVLLLDLPRDLGGMGCSSPPCECHQEEDFRVTCKDIQRIPSLPPSTQTLKLIETHLRTIPSHAFSNLPNISRIYVSIDVTLQQLESHSFYNLSKVTHIEIRNTRNLTYIDPDALKELPLLKFLGIFNTGLKMFPDLTKVYSTDIFFILEITDNPYMTSIPVNAFQGLCNETLTLKLYNNGFTSVQGYAFNGTKLDAVYLNKNKYLTVIDKDAFGGVYSGPSLLLPLGRKSLSFETQKAPRSSMPS,soluble
8,SRPRLSQLSVTDVTTSSLRLNWEAPPGAFDSFLLRFGVPSPSTLEPHPRPLLQRELMVPGTRHSAVLRDLRSGTLYSLTLYGLRGPHKADSIQGTARTL,soluble
9,SSNAKWDQWSSDWQTWNAKWDQWSNDWNAWRSDWQAWKDDWARWNQRWDNWAT,soluble
10,SSPATVTEPLKAEPAEAPVPLLRVSPSSLQCEPGYLLPNSPVLGTGGVTGYEYLTNILSSKVYDVAYETPLQKAPKLSERLGVNVLKREDLQPVFSFKIRGAYNMMAKLPKEQLEKGVICSSAGNHAQGVALSAQRLGCDAVIVMPVTTPDIKKSVKRLGATVVLVGDSYDEAQAYAKKRAESEGRTFIPPFDHPDVIVGQGTVGMEINRQLKDNIHAIFVPVGGGGLIAGIAAYLKRVAPDIKIIGVEPLDANALALSLHHGQRVMLDQVGGFADGVAVKVVGEETYRLCEELIDGVVLVGRDAICASIKDMFEEKRSILEPAGALALAGAEAYCKYYGLKGENVVAITSGANMNFDRLRLVTELADVGRQREAVLATFMPEDPGSFKKFAEMVGPMNITEFKYRYNSDKERALVLYSVGLHTILELEGMVERMESADLQTINLTDNDLVKDHLRHLMGGRTNVHNELLCRFTFPEKPGALMKFLDAFSPRNISLFHYRAQGDTGANVLVGIQVPPDEVVEFEGRADSLGYEYAMESLNEAYQLIMH,soluble
